Data: patent publication US20230047413A1 (Janssen / Centocor, published 2023)
One block for each binder: values may come before it.

Key:
[1] = molecular target: T1, tau phospho-peptide of the direct ELISA of Example 11; test: direct ELISA, peptide coated
T1 construct: also called pT217 peptide; pT212/pT217 peptide
Protocol: (§1) Binding to tau phospho-peptide was analysed by ELISA where peptide (10 ng/mL) was directly coated to the plate overnight. […] After incubation with antibodies, plates were washed and 50 μL per well of HRPO labelled anti-Fab antibody (Jackson Immunoresearch laboratories) (diluted 1:10000 in blocking buffer). After another washing step detection was performed with “One step” TMB (Thermo Scientific) according to the manufacturers' instructions. Plates were analysed in EnVision® 2102 Multilabel Reader (Perkin Elmer, Waltham, Mass., USA). Binding curves were generated using GraphPad Prism7.0 software.

Peptide-2 [2] = molecular target: T2, Peptide-2 (human, phosphothreonine 212, phosphothreonine 217 (tau 2N4R numbering); short chain biotin (SCBiot) and dPEG4 at the N-terminus; amide at the C-terminus); test: SPR ProteOn, peptide captured, Fab as analyte
T2 construct: also called pT212/pT217-tau peptide (Peptide-2)
Protocol: (§2) A subset of HFA-PT3 monoclonal antibody variants, selected based on biophysical characterization and ELISA binding to PHF, were analyzed by Surface Plasmon Resonance (SPR) with a ProteOn XPR36 for binding to the following phosphopeptides: pT212/pT217-tau peptide (Peptide-2, SEQ ID NO: 48) and pT212-tau peptide (Peptide-8, SEQ ID NO: 54). All experiments were performed at 25° C. using PBST, pH 7.4, (Bio-Rad Cat#176-2720) as both running buffer and sample dilution buffer.
(§3) Fab/peptide binding. Biotinylated peptide was captured on a neutravidin-coated NLC biosensor chip pre-conditioned with PBST, and Fab was flowed over the surface to measure kinetic parameters. Approximately 5-10 RU of peptide was captured on the chip surface by diluting peptide to 10 ng/mL in PBST and injecting over the flow channels at 30 μL/min for 100 s. Serial dilutions of PT3 Fab (1.1 nM to 90 nM) were injected at 60 μL/min for 3 minutes (association phase), followed by 300 s of buffer only (dissociation phase).
(§4) Data were double referenced by subtraction of the interspot response, and the curves generated by the buffer only injection. The chip surface was regenerated with 0.85% phosphoric acid, followed by PBST injection before the next antibody titration injection. Data processing and analysis were performed using instrument software. The data were fit using a simple Langmuir 1:1 binding model.

Peptide-2 [3] = molecular target: T2, Peptide-2; test: SPR ProteOn, peptide captured, Fab as analyte; range of n=2
Protocol: as §2, §3, §4

[4] = molecular target: T1, tau phospho-peptide of the direct ELISA …; test: direct ELISA on plate-coated tau phospho-peptide, Fabs
Protocol: as §1

Peptide-2 [5] = molecular target: T2, Peptide-2; test: SPR ProteOn, peptide captured, Fab as analyte; range of n=2; upper end of n=2 range
Protocol: as §2, §3, §4

[6] = molecular target: T3, PHF-tau (paired helical filament tau isolated from Alzheimer's disease brain) (human, UniProt P10636-8 2-441, limits assumed, hyper-phosphorylated, aggregated; sites not listed for the preparation); test: SPR ProteOn, PHF-tau capture-coupled via HT7, 1:1 model
T3 construct: also called enriched PHF-tau; ePHF-tau
Protocol: (§5) A subset of HFA-PT3 monoclonal antibodies was tested for binding to PHF-tau isolated from Alzheimer's disease brain. All interactions were studied at 25° C. using PBS pH 7.4, supplemented with 3 mM EDTA, and 0.005% Tween 20 as running or system buffer. HT7 (Pierce, catalog #MN1000), a mouse anti-tau antibody, was used as a positive control.
(§6) The interaction of anti-tau monoclonal antibodies with PHF-tau was analyzed by ProteOn using a biosensor surface prepared by capture-coupling PHF-tau using HT7 as the capture reagent. PHF-tau was prepared by 2-times centrifugation at 5000×g at 5° C. for 10 min; the supernatant from the second centrifugation was then diluted 1/40 in running buffer. To prepare the chip, HT7 was covalently immobilized to the surface of a GLC (ProteOn) sensor chip using the manufacturer's instructions for amine-coupling chemistry (˜5000 response units (RU)). The coupling buffer was 10 mM sodium acetate, pH 4.5. After HT7 immobilization, PHF-tau was injected and captured (˜300 RU) by HT7. After capture, PHF-tau was covalently immobilized to the sensor chip by activation of the chip using the manufacturer's instructions for amine-coupling chemistry. Remaining reactive sites were blocked by the injection of ethanolamine. After preparation and stabilization of the PHF-tau-modified surface and reference surface (containing no antigen), the anti-tau antibodies were diluted in the running buffer and injected in solution (0.12-75 nM in 5-fold dilutions). The association was monitored for 3 minutes (120 μL injected at 40 μL/min). The dissociation was monitored for 15 minutes. Regeneration of the sensor surface was performed using 10 mM Gly pH 2.0. The data for monoclonal antibodies were fit using a bivalent binding model where the apparent affinity (KD) was reported as the ratio of koff/kₒₙ. A Langmuir 1:1 binding model was used for kinetics analysis of Fabs.

[7] = molecular target: T3, PHF-tau (paired helical filament tau …); test: as above; remark: listed apart in the source
Protocol: (§7) Affinity matured monoclonal antibodies were tested for binding to PHF-tau isolated from Alzheimer's disease brain.
(§8) A GLC sensor chip was covalently immobilized with a mouse anti-tau antibody, HT7 (ThermoFisher, catalog# MN1000) using the vendor recommended protocol for amine-coupling chemistry (˜5000 response units, RU). The coupling buffer was 10 mM, pH 4.5 sodium acetate. PHF-tau was prepared by 2-times centrifugation at 5000×g in 5° C. for 10 min. […] After capture-coupling, the surface was activated and deactivated to generate a homogenous PHF-tau surface for antibody binding studies. The anti-tau antibodies and their Fabs (prepared in running buffer, 0.024-75 nM at 5-fold dilutions) were injected at 50 μL/min over the PHF-tau surface to measure binding. The association and dissociation profiles were monitored for 4 minutes and 2 hours, respectively. After dissociation, the sensor chip was regenerated using multiple injections of 10 mM Glycine pH 2.0 and the running buffer. A reference surface (without any PHF-tau) was used to monitor non-specific binding of the injected mAbs or Fabs. HT7 antibody was used as a positive control. The binding sensorgrams for mAbs were fit using a bivalent binding model where the apparent affinity or avidity-driven binding (KD) was reported as the ratio of off-rate and on-rate (koff/kₒₙ). A 1:1 Langmuir binding model was used for kinetics analysis of Fabs.

[8] = molecular target: T3, PHF-tau (paired helical filament tau …); test: SPR ProteOn, PHF-tau on chip
Peptide-2 [9] = molecular target: T2, Peptide-2; test: SPR ProteOn, peptide captured, Fab as analyte; range of n=2; lower end of n=2 range
Protocol: as §2, §3, §4

Peptide-2 [10] = molecular target: T2, Peptide-2; test: SPR ProteOn, mAb captured, peptide as analyte; range of n=2
Protocol: as §2
(§9) Monoclonal antibody/Peptide binding. […] Anti-human IgG was amine-coupled to the chip surface using EDC/NHS, then washed with ethanolamine. Antibodies were diluted to 2 μg/mL in PBST and injected on the surface for 5 min at 30 μL/min to achieve a maximum density of 900-1000 RU. Peptides were injected as analytes at 60 μL/min for 3 min, followed by 5 min dissociation. Peptide-2 was diluted in PBST to generate a three-fold concentration series (0-30 nM) and measured in duplicate. Single measurements of monoclonal antibody binding to Peptide-8 were recorded over the concentration range 0-100 nM.
as §4

Peptide-2 [11] = molecular target: T2, Peptide-2; test: SPR ProteOn, mAb captured, peptide as analyte; range of n=2; upper end of n=2 range
Protocol: as §2, §9, §4

[12] = molecular target: T3, PHF-tau (paired helical filament tau …); test: SPR ProteOn, PHF-tau capture-coupled via HT7, bivalent model
Protocol: as §5, §6

Peptide-2 [13] = molecular target: T2, Peptide-2; test: SPR ProteOn, mAb captured, peptide as analyte
Protocol: as §2, §9, §4

Peptide-2 [14] = molecular target: T2, Peptide-2; test: SPR ProteOn, mAb captured, peptide as analyte; range of n=2; lower end of n=2 range
Protocol: as §2, §9
as §4, with “The data were fit using a simple Langmuir 1:1 binding model.” left out

[15] = molecular target: T3, PHF-tau (paired helical filament tau …); test: SPR ProteOn, PHF-tau capture-coupled via HT7, 1:1 model; upper end of range
Protocol: as §7, §8

[16] = molecular target: T3, PHF-tau (paired helical filament tau …); test: SPR ProteOn, PHF-tau capture-coupled via HT7, 1:1 model; lower end of range
Protocol: as §7, §8

T3 sequence (P10636 other isoform, or with tags, fused parts or gaps limits assumed): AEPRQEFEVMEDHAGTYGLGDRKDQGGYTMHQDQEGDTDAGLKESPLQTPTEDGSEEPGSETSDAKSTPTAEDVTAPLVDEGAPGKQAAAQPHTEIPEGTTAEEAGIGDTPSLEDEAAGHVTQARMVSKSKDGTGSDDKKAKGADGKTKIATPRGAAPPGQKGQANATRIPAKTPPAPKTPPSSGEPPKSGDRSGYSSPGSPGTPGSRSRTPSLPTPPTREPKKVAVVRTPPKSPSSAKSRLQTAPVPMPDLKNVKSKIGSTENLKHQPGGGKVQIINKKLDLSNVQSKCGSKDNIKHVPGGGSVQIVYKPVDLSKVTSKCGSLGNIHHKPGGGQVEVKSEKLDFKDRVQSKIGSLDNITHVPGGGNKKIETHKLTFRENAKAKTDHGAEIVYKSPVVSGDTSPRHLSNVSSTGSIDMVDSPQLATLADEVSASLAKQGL
T2 sequence (peptide, as listed by the source): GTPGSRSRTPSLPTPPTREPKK

EC50 [1]: 0.341 nM
Kd (Peptide-2 [2]): 0.305 nM
koff (Peptide-2 [2]): 0.000174 s⁻¹
kon (Peptide-2 [2]): 610000 M⁻¹ s⁻¹
Kd (Peptide-2 [3]): 0.234 to 0.376 nM
kon (Peptide-2 [3]): 427000 M⁻¹ s⁻¹
EC50 (read off the curve) [4]: ~0.5 nM
koff (Peptide-2 [5]): 0.000186 s⁻¹
kon (Peptide-2 [5]): 793000 M⁻¹ s⁻¹
Kd [6]: 0.167 nM
koff [6]: 0.000136 s⁻¹
kon [6]: 816000 M⁻¹ s⁻¹
Kd [7]: 0.0632 nM
koff [7]: 9.03e-05 s⁻¹
kon [7]: 1.43e+06 M⁻¹ s⁻¹
fold slower off-rate than B326 [8]: 1.7 fold
fold stronger affinity (KD) than B326 [8]: 1.3 fold
fold weaker KD than the mouse PT3 parent Fab B187 [8]: 2.5 fold
koff (Peptide-2 [9]): 0.000161 s⁻¹
B1: B324 (Fab of B296) (Fab, V domains shown)
VH: QVQLVESGGGVVQPGRSLRLSCAASGFTFSSYAMSWVRQAPGKGLEWVASISKGGNTYYADSVKGRFTISRDNSKNTLYLQMNSLRAEDTAVYYCARGWGDYGWFAYWGQVTLVTVSS
VL: DIQMTQSPSSLSASVGDRVTITCKASQDINRYLNWFQQKPGKAPKSLIYRANRLLDGVPSRFSGSGSGTDFTLTISSLQPEDFATYYCLQYDEFPLTFGQGTKLEIK
notes: also called M324; B296 Fab

Kd (Peptide-2 [10]): 1.71 to 1.86 nM
kon (Peptide-2 [10]): 2.84e+06 M⁻¹ s⁻¹
koff (Peptide-2 [11]): 0.0061 s⁻¹
kon (Peptide-2 [11]): 3.58e+06 M⁻¹ s⁻¹
Kd [12]: 0.165 nM
koff [12]: 8.06e-05 s⁻¹
kon [12]: 490000 M⁻¹ s⁻¹
Kd (Peptide-2 [13]): 1.79 nM
koff (Peptide-2 [13]): 0.00569 s⁻¹
kon (Peptide-2 [13]): 3.21e+06 M⁻¹ s⁻¹
koff (Peptide-2 [14]): 0.00528 s⁻¹
B2: B235 (antibody, human IgG1, V domains shown)
VH: EVQLLESGGGLVQPGGSLRLSCAASGFTFSSYAMSWVRQAPGKGLEWVSSISKGGNTYYADSVKGRFTISRDNSKNTLYLQMNSLRAEDTAVYYCAKGWGDYGWFAYWGQVTLVTVSS
VL: DIQMTQSPSSLSASVGDRVTITCKASQDINRYLNWFQQKPGKAPKSLIYRANRLLDGVPSRFSGSGSGTDFTLTISSLQPEDFATYYCLQYDEFPLTFGQGTKLEIK
notes: Humanized (HFA) PT3 variant, human IgG1/kappa; also called VH91/VL77

EC50 [1]: 0.107 nM
Kd [15]: 0.0158 nM
koff [15]: 7.36e-05 s⁻¹
kon [15]: 4.66e+06 M⁻¹ s⁻¹
Kd [16]: 0.0153 nM
koff [16]: 6.94e-05 s⁻¹
kon [16]: 4.53e+06 M⁻¹ s⁻¹
EC50 (read off the curve) [4]: ~0.2 nM
Kd [7]: 0.0156 nM
koff [7]: 7.15e-05 s⁻¹
kon [7]: 4.6e+06 M⁻¹ s⁻¹
B3: B330 (Fab of B711) (Fab, V domains shown)
VH: QVQLVESGGGVVQPGRSLRLSCAASGFTFTSYAMSWVRQAPGKGLEWVASITKGGNTYYADSVKGRFTISRDNSKNTLYLQMNSLRAEDTAVYYCARGWGIYGWFAYWGQVTLVTVSS
VL: DIQMTQSPSSLSASVGDRVTITCKASQDINRWLNWFQQKPGKAPKSLIYRANRLLDGVPSRFSGSGSGTDFTLTISSLQPEDFATYYCLQYDEFPLTFGQGTKLEIK
notes: the Fab's constant parts and tag are not described; also called M330; M333 (the Fab of B711)
